The values that follow are results of earlier work, collected in PMC10601247.

As usually defined, the Kd is the concentration at which binding is half-saturated.

In series [1] the target is flotillin-1 (Homo sapiens) (UniProt O75955). Put plainly: SPR. On the technique in general: In SPR one partner is held on a chip, and binding of the other changes the refractive index at the surface.
In series [2] the target is flotillin-2 (Homo sapiens) (UniProt Q14254). Nature of the series: SPR.
Sequence of UniProt Q14254 (Q14254 2-428): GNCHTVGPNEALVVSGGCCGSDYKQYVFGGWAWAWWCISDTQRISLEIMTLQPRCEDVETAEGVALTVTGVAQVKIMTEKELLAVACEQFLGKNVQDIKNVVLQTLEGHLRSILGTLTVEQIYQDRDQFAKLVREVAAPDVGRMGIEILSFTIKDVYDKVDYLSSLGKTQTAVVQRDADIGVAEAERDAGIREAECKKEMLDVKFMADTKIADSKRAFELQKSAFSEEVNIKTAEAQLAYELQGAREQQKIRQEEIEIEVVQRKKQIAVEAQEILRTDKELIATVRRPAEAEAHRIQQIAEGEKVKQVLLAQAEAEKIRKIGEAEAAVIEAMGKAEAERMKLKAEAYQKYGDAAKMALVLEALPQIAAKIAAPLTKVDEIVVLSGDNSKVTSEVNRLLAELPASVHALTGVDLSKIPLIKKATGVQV

Sequence of UniProt O75955 (O75955 whole entry): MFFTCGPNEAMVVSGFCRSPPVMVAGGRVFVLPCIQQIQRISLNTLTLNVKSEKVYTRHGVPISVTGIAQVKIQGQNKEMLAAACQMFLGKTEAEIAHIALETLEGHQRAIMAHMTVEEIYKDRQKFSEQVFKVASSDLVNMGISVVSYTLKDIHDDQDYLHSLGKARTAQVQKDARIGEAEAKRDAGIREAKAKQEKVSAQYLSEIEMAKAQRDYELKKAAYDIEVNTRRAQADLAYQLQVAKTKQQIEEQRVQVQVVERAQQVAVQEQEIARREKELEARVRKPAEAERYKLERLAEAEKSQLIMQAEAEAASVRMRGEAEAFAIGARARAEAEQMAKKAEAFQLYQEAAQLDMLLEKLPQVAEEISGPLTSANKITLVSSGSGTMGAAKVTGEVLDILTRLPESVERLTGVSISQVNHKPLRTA

With MPP1 (from UniProt Q00013), the Kd is 23 nM in series [1] and 31 nM in series [2].
